Data from paper PMC11281603.

Biological target: polymeric Ig receptor (pIgR) fused to the FLAG tag (UniProt P01833)
Conditions: parent: 1.00

Chain of UniProt P01833 (P01833 19-764): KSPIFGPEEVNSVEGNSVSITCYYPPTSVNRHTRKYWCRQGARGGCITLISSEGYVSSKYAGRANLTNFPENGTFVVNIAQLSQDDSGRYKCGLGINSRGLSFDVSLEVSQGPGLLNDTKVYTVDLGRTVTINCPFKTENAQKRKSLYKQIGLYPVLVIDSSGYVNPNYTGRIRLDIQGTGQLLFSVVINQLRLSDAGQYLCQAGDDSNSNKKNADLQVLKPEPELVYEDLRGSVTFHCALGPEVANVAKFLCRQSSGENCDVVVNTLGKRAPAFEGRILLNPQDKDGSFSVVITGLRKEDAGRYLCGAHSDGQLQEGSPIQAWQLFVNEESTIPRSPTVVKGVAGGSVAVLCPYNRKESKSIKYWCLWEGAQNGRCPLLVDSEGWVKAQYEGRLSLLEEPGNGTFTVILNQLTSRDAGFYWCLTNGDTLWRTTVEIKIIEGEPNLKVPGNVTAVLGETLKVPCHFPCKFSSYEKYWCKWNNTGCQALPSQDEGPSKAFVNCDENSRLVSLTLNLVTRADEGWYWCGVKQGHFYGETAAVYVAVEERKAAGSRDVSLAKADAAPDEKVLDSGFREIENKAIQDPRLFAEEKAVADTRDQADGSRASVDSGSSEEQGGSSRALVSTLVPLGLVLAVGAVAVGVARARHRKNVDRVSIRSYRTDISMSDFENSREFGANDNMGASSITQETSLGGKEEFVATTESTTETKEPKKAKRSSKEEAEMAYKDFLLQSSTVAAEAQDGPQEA

## WT SARS-CoV-2 ORF8 fused to a C-terminal Strep-II tag (from UniProt P0DTC8) R115A
  ratio to parent: 1

## WT SARS-CoV-2 ORF8 fused to a C-terminal Strep-II tag (from UniProt P0DTC8) C20A
  ratio to parent: 0.43
